For experiment [1], the target named is T1, mMC4R (Mus musculus, UniProt P56450). Conditions: read-out: mMC4R EC50; agonist; previously reported values; cited from earlier work.
Another experiment has as its target mMC5R (Mus musculus, UniProt P41149). Conditions: read-out: mMC5R EC50; agonist; previously reported values; cited from earlier work.
For experiment [2], the target named is T1, mMC4R. To be noted: AGRP/NDP-MSH chimeric ligands; cited from earlier work.
In experiment [3] the target is mouse melanocortin 1 receptor (mouse) (UniProt Q01727).
Experiment [4] deals with mouse melanocortin 3 receptor (mouse) (UniProt P33033).
Experiment [5] has as its target mouse melanocortin 5 receptor (mouse) (UniProt P41149).
For experiment [6], the target named is mouse melanocortin 4 receptor (mouse) (UniProt P56450).

Here are results for eight molecules from PMC5639694 (Journal of medicinal chemistry, 2017).

Square brackets hold non-standard residues; d marks the D form. Dap = NC[C@H](N)C(=O)O

Chain of mouse melanocortin 4 receptor (mouse) (P56450 whole entry): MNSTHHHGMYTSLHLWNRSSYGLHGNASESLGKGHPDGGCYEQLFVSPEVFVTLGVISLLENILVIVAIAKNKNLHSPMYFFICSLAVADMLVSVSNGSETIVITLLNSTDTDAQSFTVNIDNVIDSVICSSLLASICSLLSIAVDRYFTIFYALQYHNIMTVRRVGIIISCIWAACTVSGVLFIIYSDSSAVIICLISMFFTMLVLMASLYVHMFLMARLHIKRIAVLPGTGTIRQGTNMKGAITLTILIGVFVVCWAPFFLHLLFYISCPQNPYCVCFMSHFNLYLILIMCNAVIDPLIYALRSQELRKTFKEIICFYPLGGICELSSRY
T1 sequence (P56450 whole entry): as above
Chain of mouse melanocortin 1 receptor (mouse) (Q01727 whole entry): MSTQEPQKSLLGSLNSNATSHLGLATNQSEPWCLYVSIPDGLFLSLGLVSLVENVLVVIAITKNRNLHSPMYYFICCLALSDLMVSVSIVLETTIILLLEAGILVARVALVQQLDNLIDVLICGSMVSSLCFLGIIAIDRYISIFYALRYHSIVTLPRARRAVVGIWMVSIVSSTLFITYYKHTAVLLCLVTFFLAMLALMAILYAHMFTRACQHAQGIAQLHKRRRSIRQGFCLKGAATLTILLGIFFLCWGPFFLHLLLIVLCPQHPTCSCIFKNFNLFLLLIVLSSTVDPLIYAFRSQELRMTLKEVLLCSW
Chain of mouse melanocortin 5 receptor (mouse) (P41149 whole entry): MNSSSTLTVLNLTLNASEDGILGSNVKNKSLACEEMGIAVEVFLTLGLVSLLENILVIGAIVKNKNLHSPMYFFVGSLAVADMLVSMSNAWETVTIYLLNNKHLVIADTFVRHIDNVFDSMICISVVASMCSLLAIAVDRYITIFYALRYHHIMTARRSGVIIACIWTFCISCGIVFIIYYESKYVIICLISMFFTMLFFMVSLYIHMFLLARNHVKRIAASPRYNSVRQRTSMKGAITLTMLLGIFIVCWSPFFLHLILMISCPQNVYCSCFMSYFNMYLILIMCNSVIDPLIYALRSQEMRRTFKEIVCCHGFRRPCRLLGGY
Chain of mouse melanocortin 3 receptor (mouse) (P33033 whole entry): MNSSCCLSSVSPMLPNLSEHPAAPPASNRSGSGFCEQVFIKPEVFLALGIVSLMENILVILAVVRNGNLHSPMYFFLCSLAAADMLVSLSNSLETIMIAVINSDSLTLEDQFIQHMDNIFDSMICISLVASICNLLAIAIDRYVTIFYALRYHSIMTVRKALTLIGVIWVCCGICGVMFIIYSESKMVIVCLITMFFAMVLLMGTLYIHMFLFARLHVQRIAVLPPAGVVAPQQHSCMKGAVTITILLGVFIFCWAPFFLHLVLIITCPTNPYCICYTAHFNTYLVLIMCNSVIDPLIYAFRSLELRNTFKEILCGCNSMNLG
Chain of mMC5R (P41149 whole entry): as the sequence (P41149 whole entry) above

A word on the EC50: it is the concentration that produces a half-maximal response. In the case of `CC(=O)N[C@@H](Cc1cnc[nH]1)C(=O)N[C@H](Cc1ccccc1)C(=O)N[C@@H](CCCN=C(N)N)C(=O)N[C@@H](Cc1c[nH]c2ccccc12)C(N)=O` [HfRW, Ac-His-DPhe-Arg-Trp-NH2], the results for the EC50 at mMC4R [1] and at mMC5R were 14 ± 2 nM and 10 ± 3 nM, respectively.
Consider “Tyr-c[Asp-His-DPhe-Arg-Trp-Asn-Ala-Phe-Dap]-Tyr-NH2”, for which the “selectivity for the mMC4R over the mMC3R (reported)” value at mMC4R [2] is 5 fold.
As for “Tyr-c[Cys-His-DPhe-Arg-Trp-Asn-Ala-Phe-Cys]-Tyr-NH2”, on mMC4R [2], the “selectivity for the mMC4R over the mMC3R (reported)” value is 7 fold.
Turning to cyclo(PH[dF]RW[Dap]AF[dP]), the results for the agonist EC50 (cAMP AlphaScreen, HEK293 cells stably expressing the receptor) in experiment [3], in experiment [4] and in experiment [5] were 24 nM, 260 nM and 18 nM, respectively.
Consider cyclo(PH[dF]RW[Dap]A[dP]), for which the agonist EC50 (cAMP AlphaScreen, HEK293 cells stably expressing the receptor) in experiment [3] came out at 1.1 nM; in experiment [6], 1.6 nM.
cyclo(PH[dF]RW[Dap][dP]): the agonist EC50 (cAMP AlphaScreen, HEK293 cells stably expressing the receptor) was found to be 460 nM in experiment [3], 950 nM in experiment [6] and 330 nM in experiment [5].

B1: c[Pro-His-DPhe-Arg-Trp-Asn-Ala-Phe-DPro] (peptide)
peptide: cyclo(PH[dF]RWNAF[dP])
SMILES: C[C@@H]1NC(=O)[C@H](CC(N)=O)NC(=O)[C@H](Cc2c[nH]c3ccccc23)NC(=O)[C@H](CCCNC(=N)N)NC(=O)[C@@H](Cc2ccccc2)NC(=O)[C@H](Cc2c[nH]cn2)NC(=O)[C@@H]2CCCN2C(=O)[C@H]2CCCN2C(=O)[C@H](Cc2ccccc2)NC1=O
In the case of B1, the agonist EC50 (cAMP AlphaScreen, HEK293 cells stably expressing the receptor) in experiment [3] was determined as 0.35 nM; in experiment [4], 32 nM; in experiment [6] it was 1.4 nM; in experiment [5], 0.45 nM.

B2: c[Pro-His-DPhe-Arg-Trp-Asn-Ala-DPro] (peptide)
peptide: cyclo(PH[dF]RWNA[dP])
SMILES: C[C@@H]1NC(=O)[C@H](CC(N)=O)NC(=O)[C@H](Cc2c[nH]c3ccccc23)NC(=O)[C@H](CCCNC(=N)N)NC(=O)[C@@H](Cc2ccccc2)NC(=O)[C@H](Cc2c[nH]cn2)NC(=O)[C@@H]2CCCN2C(=O)[C@H]2CCCN2C1=O
B2: the figures for the agonist EC50 (cAMP AlphaScreen, HEK293 cells stably expressing the receptor) in experiment [3], in experiment [6] and in experiment [5] were 12 nM, 29 nM and 2.1 nM, respectively.
